Results published in US20160264649A1.

Legend:
Assay in all cases: cell-based or functional assay
[1] = biological target: HIV-1 Env of isolate MGRM-F1-020 (subtype F) (HIV-1)
[2] = biological target: HIV-1 Env of isolate 92UG001 (subtype D) (HIV-1)
[3] = biological target: HIV-1 Env of isolate MGRM-D-022 (subtype D) (HIV-1)
[4] = biological target: HIV-1 Env of pseudovirus isolate MGRM-G-014 (subtype G) (HIV-1)
[5] = biological target: HIV-1 Env of isolate MGRM-F1-012 (subtype F) (HIV-1)
[6] = biological target: HIV-1 Env of isolate MGRM-D-002 (subtype D) (HIV-1)
[7] = biological target: HIV-1 Env of pseudovirus isolate MGRM-G-001 (subtype G) (HIV-1)
[8] = biological target: HIV-1 Env of isolate MGRM-D-012 (subtype D) (HIV-1)
[9] = biological target: HIV-1 Env of isolate MGRM-D-018 (subtype D) (HIV-1)
[10] = biological target: HIV-1 Env of isolate MGRM-D-008 (subtype D) (HIV-1)
[11] = biological target: HIV-1 Env of isolate MGRM-F1-010 (subtype F) (HIV-1)
[12] = biological target: HIV-1 Env of isolate MGRM-D-029 (subtype D) (HIV-1)
[13] = biological target: HIV-1 Env of isolate MGRM-F1-017 (subtype F) (HIV-1)
[14] = biological target: HIV-1 Env of isolate MGRM-D-026 (subtype D) (HIV-1)
[15] = biological target: HIV-1 Env of isolate MGRM-D-021 (subtype D) (HIV-1)
[16] = biological target: HIV-1 Env of pseudovirus isolate MGRM-G-017 (subtype G) (HIV-1)
[17] = biological target: HIV-1 Env of isolate 92UG005 (subtype D) (HIV-1)
[18] = biological target: HIV-1 Env of isolate MGRM-D-016 (subtype D) (HIV-1)
[19] = biological target: HIV-1 Env of isolate MGRM-F1-004 (subtype F) (HIV-1)
[20] = biological target: HIV-1 Env of isolate MGRM-F1-018 (subtype F) (HIV-1)
[21] = biological target: HIV-1 Env of isolate MGRM-F1-022 (subtype F) (HIV-1)
[22] = biological target: HIV-1 Env of pseudovirus isolate MGRM-G-025 (subtype G) (HIV-1)
[23] = biological target: HIV-1 Env of isolate 98CN006 (subtype CRF08_BC) (HIV-1)
[24] = biological target: HIV-1 Env of isolate MGRM-F1-016 (subtype F) (HIV-1)
[25] = biological target: HIV-1 Env of isolate MGRM-F1-006 (subtype F) (HIV-1)
[26] = biological target: HIV-1 Env of isolate MGRM-D-011 (subtype D) (HIV-1)
[27] = biological target: HIV-1 Env of pseudovirus isolate MGRM-G-028 (subtype G) (HIV-1)
[28] = biological target: HIV-1 Env of isolate MGRM-D-028 (subtype D) (HIV-1)
[29] = biological target: HIV-1 Env of isolate MGRM-D-024 (subtype D) (HIV-1)
[30] = biological target: HIV-1 Env of pseudovirus isolate MGRM-G-004 (subtype G) (HIV-1)
[31] = biological target: HIV-1 Env of isolate MGRM-D-005 (subtype D) (HIV-1)
[32] = biological target: HIV-1 Env of pseudovirus isolate MGRM-G-024 (subtype G) (HIV-1)
[33] = biological target: HIV-1 Env of isolate 92UG114 (subtype D) (HIV-1)
[34] = biological target: HIV-1 Env of isolate MGRM-F1-008 (subtype F) (HIV-1)
[35] = biological target: HIV-1 Env of pseudovirus isolate MGRM-G-016 (subtype G) (HIV-1)
[36] = biological target: HIV-1 Env of pseudovirus isolate MGRM-G-011 (subtype G) (HIV-1)
[37] = biological target: HIV-1 Env of isolate MGRM-F1-015 (subtype F) (HIV-1)
[38] = biological target: envelope of aMLV pseudovirus (negative control)
[39] = biological target: HIV-1 Env of pseudovirus isolate MGRM-G-027 (subtype G) (HIV-1)
[40] = biological target: HIV-1 Env of isolate MGRM-F1-023 (subtype F) (HIV-1)
[41] = biological target: HIV-1 Env of isolate MGRM-D-004 (subtype D) (HIV-1)
[42] = biological target: HIV-1 Env of isolate MGRM-D-003 (subtype D) (HIV-1)
[43] = biological target: HIV-1 Env of pseudovirus isolate MGRM-G-013 (subtype G) (HIV-1)
[44] = biological target: HIV-1 Env of isolate MGRM-D-020 (subtype D) (HIV-1)
[45] = biological target: HIV-1 Env of isolate MGRM-F1-013 (subtype F) (HIV-1)
[46] = biological target: HIV-1 Env of pseudovirus isolate MGRM-G-006 (subtype G) (HIV-1)
[47] = biological target: HIV-1 Env of isolate 92UG046 (subtype D) (HIV-1)
[48] = biological target: HIV-1 Env of isolate MGRM-D-001 (subtype D) (HIV-1)
[49] = biological target: HIV-1 Env of isolate MGRM-F1-021 (subtype F) (HIV-1)
[50] = biological target: HIV-1 Env of isolate 92UG024 (subtype D) (HIV-1)
[51] = biological target: HIV-1 Env of isolate MGRM-D-013 (subtype D) (HIV-1)
[52] = biological target: HIV-1 Env of pseudovirus isolate MGRM-G-015 (subtype G) (HIV-1)
[53] = biological target: HIV-1 Env of pseudovirus isolate MGRM-G-019 (subtype G) (HIV-1)
[54] = biological target: HIV-1 Env of isolate MGRM-D-014 (subtype D) (HIV-1)
[55] = biological target: HIV-1 Env of isolate MGRM-F1-014 (subtype F) (HIV-1)
[56] = biological target: HIV-1 Env of isolate 98CN009 (subtype CRF07_BC) (HIV-1)
[57] = biological target: HIV-1 Env of isolate MGRM-D-019 (subtype D) (HIV-1)
[58] = biological target: HIV-1 Env of pseudovirus isolate MGRM-G-009 (subtype G) (HIV-1)

PGT-122 (antibody)
IC50 (neutralization) [1]: 0.321 µg/mL | IC50 (neutralization) [2]: > 50 µg/mL | IC50 (neutralization) [3]: > 50 µg/mL | IC50 [4]: 8 ng/mL | IC50 (neutralization) [5]: > 50 µg/mL | IC50 (neutralization) [6]: 5 ng/mL | IC50 [7]: 5 ng/mL | IC50 (neutralization) [8]: > 50 µg/mL | IC50 (neutralization) [9]: 7 ng/mL | IC50 (neutralization) [10]: > 50 µg/mL | IC50 (neutralization) [11]: 0.024 µg/mL | IC50 (neutralization) [12]: > 50 µg/mL | IC50 (neutralization) [13]: > 50 µg/mL | IC50 (neutralization) [14]: > 50 µg/mL | IC50 (neutralization) [15]: 11.7 µg/mL | IC50 [16]: 0.032 µg/mL | IC50 (neutralization) [17]: > 50 µg/mL | IC50 (neutralization) [18]: > 50 µg/mL | IC50 (neutralization) [19]: 1.29 µg/mL | IC50 (neutralization) [20]: 0.563 µg/mL | IC50 (neutralization) [21]: 0.277 µg/mL | IC50 [22]: 0.079 µg/mL | IC50 (neutralization) [23]: 0.021 µg/mL | IC50 (neutralization) [24]: 4.81 µg/mL | IC50 (neutralization) [25]: 3.27 µg/mL | IC50 (neutralization) [26]: 0.019 µg/mL | IC50 [27]: 0.01 µg/mL | IC50 (neutralization) [28]: 3.34 µg/mL | IC50 (neutralization) [29]: 0.185 µg/mL | IC50 [30]: 2.15 µg/mL | IC50 (neutralization) [31]: > 50 µg/mL | IC50 [32]: 0.033 µg/mL | IC50 (neutralization) [33]: 0.011 µg/mL | IC50 (neutralization) [34]: > 50 µg/mL | IC50 [35]: > 50 µg/mL | IC50 [36]: 31.3 µg/mL | IC50 (neutralization) [37]: 31.4 µg/mL | IC50 [38]: > 50 µg/mL | IC50 [39]: 0.606 µg/mL | IC50 (neutralization) [40]: 0.154 µg/mL | IC50 (neutralization) [41]: > 50 µg/mL | IC50 (neutralization) [42]: > 50 µg/mL | IC50 [43]: 3.45 µg/mL | IC50 (neutralization) [44]: 7 ng/mL | IC50 (neutralization) [45]: 0.152 µg/mL | IC50 [46]: > 50 µg/mL | IC50 (neutralization) [47]: > 50 µg/mL | IC50 (neutralization) [48]: 1.13 µg/mL | IC50 (neutralization) [49]: 2.3 µg/mL | IC50 (neutralization) [50]: > 50 µg/mL | IC50 (neutralization) [51]: > 50 µg/mL | IC50 [52]: > 50 µg/mL | IC50 [53]: 0.016 µg/mL | IC50 (neutralization) [54]: 0.012 µg/mL | IC50 (neutralization) [55]: 0.195 µg/mL | IC50 (neutralization) [56]: 0.013 µg/mL | IC50 (neutralization) [57]: > 50 µg/mL | IC50 [58]: 0.514 µg/mL
